Legend:
Type in all cases: cell-based
bovine smooth muscle = test: Proliferation of bovine smooth muscle cells (cell counting)
Description: (§1) Bovine aorta endothelial cells or bovine smooth muscle at an early passage were cultured in DMEM+10% FCS. Cells were then kept for 16 hours in DMEM in absence of FCS, and plated in 6 cm wells of 6-well plates (about 50 000 cells per well). Cells were then cultured, in triplicate, in the presence of DMEM alone, DMEM+10% FCS, or DMEM+different concentrations of HMGB1. At 24 hours intervals cells were counted under the microscope.

[1] = tested on: Bovine aorta endothelial cells; test: Proliferation of bovine aorta endothelial cells (cell counting); settings: DMEM + different concentrations of HMGB1, no FCS; cells counted at 24 hours intervals; FIG. 1
Description: as §1

3T3 mouse fibroblasts = test: Proliferation of 3T3 mouse fibroblasts in similar conditions; settings: data not shown

B1: HMGB1: HMGB1 protein, released after mechanical injury of cells; induces smooth muscle cell and endothelial cell proliferation (protein, UniProt P09429 1-215, looked up)
High mobility group protein B1: MGKGDPKKPRGKMSSYAFFVQTCREEHKKKHPDASVNFSEFSKKCSERWKTMSAKEKGKFEDMAKADKARYEREMKTYIPPKGETKKKFKDPNAPKRPPSAFFLFCSEYRPKIKGEHPGLSIGDVAKKLGEMWNNTAADDKQPYEKKAAKLKEKYEKDIAAYRAKGKPDAAKKGVVKAEKSKKKKEEEEDEEDEEDEEEEEDEEDEDEEEDDDDE
With B1 the “cell division / proliferation of BSMC” value (bovine smooth muscle; DMEM + different concentrations of HMGB1, no FCS, single addition, cells counted at 24 hours intervals, FIG. 1) was “a couple of rounds of division in BSMC, followed by quiescence”, the “cell proliferation of BSMC on repeated addition” value (bovine smooth muscle; repeated addition of HMGB1 every 24 hours, data not shown) was “keep proliferating” and the “cell division / proliferation of BAEC” value [1] was “keep dividing”. The “proliferation of 3T3 mouse fibroblasts” value (3T3 mouse fibroblasts) was “does not cause the proliferation”.
